Positions count from the first letter of the chain named.

Five molecules from patent publication US20250002610A1 (Genmab, published 2025) can be followed below.

Experiment [1] deals with T1, mouse FAPα on Expi293F cells (mouse (Mus musculus), UniProt P97321 1-761).
T1 sequence: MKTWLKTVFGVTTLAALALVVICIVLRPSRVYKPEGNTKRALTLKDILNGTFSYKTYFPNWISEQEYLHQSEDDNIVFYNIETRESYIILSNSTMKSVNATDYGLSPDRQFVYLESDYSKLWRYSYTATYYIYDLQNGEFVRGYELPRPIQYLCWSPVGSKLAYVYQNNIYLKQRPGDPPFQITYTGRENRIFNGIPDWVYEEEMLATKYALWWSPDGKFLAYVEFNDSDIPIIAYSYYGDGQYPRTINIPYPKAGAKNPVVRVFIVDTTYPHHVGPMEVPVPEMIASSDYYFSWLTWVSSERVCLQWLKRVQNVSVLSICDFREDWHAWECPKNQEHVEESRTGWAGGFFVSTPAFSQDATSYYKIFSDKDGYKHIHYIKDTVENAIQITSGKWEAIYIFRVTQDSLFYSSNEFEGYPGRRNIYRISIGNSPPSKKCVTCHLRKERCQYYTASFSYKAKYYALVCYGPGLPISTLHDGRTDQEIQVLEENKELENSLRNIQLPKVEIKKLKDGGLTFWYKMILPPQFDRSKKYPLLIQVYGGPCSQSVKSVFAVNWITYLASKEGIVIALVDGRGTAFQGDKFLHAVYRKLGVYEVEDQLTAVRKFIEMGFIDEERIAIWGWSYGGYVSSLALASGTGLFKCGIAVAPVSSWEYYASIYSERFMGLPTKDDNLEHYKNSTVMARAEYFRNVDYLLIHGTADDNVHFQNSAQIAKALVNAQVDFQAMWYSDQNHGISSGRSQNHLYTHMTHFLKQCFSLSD
Nature of the experiment: flow cytometry on Expi293F cells transiently expressing mouse FAPα, gMFI PE. The protocol:
Binding of BisG1-FAPα-FERL/DR4-FERR, BisG1-FAPα-FEAL/b12-FEAR and IgG1-FAPα-FERL to FAPα of species commonly used for nonclinical toxicology studies was assessed by flow cytometry using Expi293F cells transiently expressing FAPα from different animal species. IgG1-b12 was included as negative control.
Expi293F cells expressing recombinant FAPα from various species (human, cynomolgus monkey, dog, pig, rat or mouse) were seeded (20,000 cells/well) in 96-Well round bottom plates (Greiner Bio-one, Cat #650101). Antibody dilutions were prepared using FACS buffer, consisting of PBS (Capricorn Scientific, Cat #PBS-10XA, diluted to 1×PBS in distilled water)+1% BSA (Roche, Cat #10735086001)+0.02% Sodium Azide (Bio-World, Cat #41920044-3). Plates were centrifuged, supernatant was removed, and cells were resuspended in 100 μL of antibody dilutions (concentration range 30-0.00017 μg/mL with three-fold serial dilutions using FACS buffer) of BisG1-FAPα-FERL/DR4-FERR, BisG1-FAPα-FEAL/b12-FEAR, IgG1-FAPα-FERL and IgG1-b12 and incubated for 30 min at 4° C. […] After 30 min incubation at 4° C., cells were washed with FACS buffer and resuspended in FACS buffer supplemented with TO-PRO-3 Iodide viability marker (Invitrogen, Cat #T3605, diluted 1:4,000). Antibody binding to viable cells (gMFI of PE on TO-PRO-3 negative cells) was analyzed by flow cytometry on a FACS Celesta and FACS_Diva software (first two experiments) or iQue® 3 and FlowJo software (last experiment). gMFI was determined and visualized using GraphPad Prism. Binding curves were analyzed using nonlinear regression analysis. The concentration (pg/mL) at which 50% of the maximal effect was observed (EC₅₀) was derived from the fitted curves.
For orientation: In flow cytometry, cells or beads pass a laser one at a time.

The target in experiment [2] is T2, human DR4 (Death Receptor 4), cell surface expressed on human tumor cell lines (human, UniProt O00220 24-468).
T2 construct: also called TNFRSF10A; TRAIL-R1
T2 sequence: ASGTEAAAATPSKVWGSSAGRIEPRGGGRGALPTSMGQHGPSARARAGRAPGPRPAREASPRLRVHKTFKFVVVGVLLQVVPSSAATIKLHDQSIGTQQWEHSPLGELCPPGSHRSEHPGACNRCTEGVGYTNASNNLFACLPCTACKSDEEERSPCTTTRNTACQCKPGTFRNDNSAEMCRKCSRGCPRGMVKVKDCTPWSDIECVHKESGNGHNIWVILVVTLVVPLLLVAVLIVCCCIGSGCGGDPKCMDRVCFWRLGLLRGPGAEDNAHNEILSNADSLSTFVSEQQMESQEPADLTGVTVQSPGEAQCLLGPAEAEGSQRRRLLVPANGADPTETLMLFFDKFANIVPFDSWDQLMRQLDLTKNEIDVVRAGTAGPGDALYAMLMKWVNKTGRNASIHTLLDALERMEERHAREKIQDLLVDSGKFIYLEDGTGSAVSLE
Nature of the experiment: flow cytometry, HCT-15 cells, n = 1.

Experiment [3] addresses T2, human DR4 (Death Receptor 4), cell …. In words: flow cytometry, A549 cells, n = 1.

B1: BisG1-FAPα-FERL/DR4-FERR (bispecific antibody, human IgG1, kappa, lambda)
heavy 1: EVQLLESGGGLVQPGGSPRLSCEASGFTFSSYALSWVRQAPGKGLEWVSAISGSGGGRYYADSVKGRFTISRDNSKNTLFLQMNSLRAEDTAVYYCAKEGYSSSGTYWDHWGQGTLVTVSSASTKGPSVFPLAPSSKSTSGGTAALGCLVKDYFPEPVTVSWNSGALTSGVHTFPAVLQSSGLYSLSSVVTVPSSSLGTQTYICNVNHKPSNTKVDKRVEPKSCDKTHTCPPCPAPEFERGPSVFLFPPKPKDTLMISRTPEVTCVVVDVSHEDPEVKFNWYVDGVEVHNAKTKPREEQYNSTYRVVSVLTVLHQDWLNGKEYKCKVSNKALPAPIEKTISKAKGQPREPQVYTLPPSREEMTKNQVSLTCLVKGFYPSDIAVEWESNGQPENNYKTTPPVLDSDGSFLLYSKLTVDKSRWQQGNVFSCSVMHEALHNHYTQKSLSLSPG
light 1: AIQMTQSPSSVSASVGDRVTITCRASQGVSSWLAWYQQKPGRAPKLLIYVASTLQSGVPSRFSGSGSGTDFTLTINSLQPEDFATYYCQQANSFPPTFGQGTRLEMKRTVAAPSVFIFPPSDEQLKSGTASVVCLLNNFYPREAKVQWKVDNALQSGNSQESVTEQDSKDSTYSLSSTLTLSKADYEKHKVYACEVTHQGLSSPVTKSFNRGEC
heavy 2: QVQLQESGPGLVKPSGTLSLTCAVSGGSISSYSWWSWIRQPPGKGLEWIGELYHSGSTNYNPSLKSRVTISVDKSKNQFSLKLRSVTAADTAVYYCVRGVATIDYWGQGTLVTVSSASTKGPSVFPLAPSSKSTSGGTAALGCLVKDYFPEPVTVSWNSGALTSGVHTFPAVLQSSGLYSLSSVVTVPSSSLGTQTYICNVNHKPSNTKVDKRVEPKSCDKTHTCPPCPAPEFERGPSVFLFPPKPKDTLMISRTPEVTCVVVDVSHEDPEVKFNWYVDGVEVHNAKTKPREEQYNSTYRVVSVLTVLHQDWLNGKEYKCKVSNKALPAPIEKTISKAKGQPREPQVYTLPPSREEMTKNQVSLTCLVKGFYPSDIAVEWESNGQPENNYKTTPPVLDSDGSFFLYSRLTVDKSRWQQGNVFSCSVMHEALHNHYTQKSLSLSPG
light 2: QSALTQPPSASGSPGQSVTISCTGTSSDVGGYNFVSWYQQDPGKAPKLLIYEVTKRPSGVPDRFSGSKSGNTASLTVSGLQAEDEADYYCSSYAGSNNVMFGGGTKLTVLGQPKAAPSVTLFPPSSEELQANKATLVCLISDFYPGAVTVAWKADSSPVKAGVETTTPSKQSNNKYAASSYLSLTPEQWKSHRSYSCQVTHEGSTVEKTVAPTECS
notes: Human IgG1 bispecific made by controlled Fab-arm exchange of IgG1-FAPα-FERL and IgG1-DR4-FERR; monovalent for FAPα and for DR4; also called GEN1057
By EC50 is commonly meant the concentration at which the effect is half-maximal. Read a high EC50 as a need for much substance. In the case of B1, the binding result in experiment [1] was “binds”. Besides, the half-maximal effective concentration (EC50) in experiment [2] worked out at 0.59 µg/mL; in experiment [3] it was 0.86 µg/mL.

B2: BisG1-b12-FERL/DR4-FERR (bispecific antibody, human IgG1, kappa, lambda)
heavy 1: QVQLVQSGAEVKKPGASVKVSCQASGYRFSNFVIHWVRQAPGQRFEWMGWINPYNGNKEFSAKFQDRVTFTADTSANTAYMELRSLRSADTAVYYCARVGPYSWDDSPQDNYYMDVWGKGTTVIVSSASTKGPSVFPLAPSSKSTSGGTAALGCLVKDYFPEPVTVSWNSGALTSGVHTFPAVLQSSGLYSLSSVVTVPSSSLGTQTYICNVNHKPSNTKVDKRVEPKSCDKTHTCPPCPAPEFERGPSVFLFPPKPKDTLMISRTPEVTCVVVDVSHEDPEVKFNWYVDGVEVHNAKTKPREEQYNSTYRVVSVLTVLHQDWLNGKEYKCKVSNKALPAPIEKTISKAKGQPREPQVYTLPPSREEMTKNQVSLTCLVKGFYPSDIAVEWESNGQPENNYKTTPPVLDSDGSFLLYSKLTVDKSRWQQGNVFSCSVMHEALHNHYTQKSLSLSPG
light 1: EIVLTQSPGTLSLSPGERATFSCRSSHSIRSRRVAWYQHKPGQAPRLVIHGVSNRASGISDRFSGSGSGTDFTLTITRVEPEDFALYYCQVYGASSYTFGQGTKLERKRTVAAPSVFIFPPSDEQLKSGTASVVCLLNNFYPREAKVQWKVDNALQSGNSQESVTEQDSKDSTYSLSSTLTLSKADYEKHKVYACEVTHQGLSSPVTKSFNRGEC
heavy 2: B1 heavy 2
light 2: B1 light 2
notes: Fab-arm exchange of IgG1-b12-FERL and IgG1-DR4-FERR; also called bsIgG1-ctrl-FERLxDR4-FERR
On to B2, for which the concentration for a half-maximal effect (EC50) in experiment [2] worked out at 0.59 µg/mL; in experiment [3], 0.89 µg/mL.

B3: IgG1-FAPα-FERL (antibody)
heavy: B1 heavy 1
light: B1 light 1
notes: Bivalent monoclonal IgG1 kappa
A word on the EC50 (read off the curve): it is the concentration giving half of the maximal effect. Low readings indicate an effect from little substance, high ones a need for much substance. In the case of B3, the “EC50 (read off the curve)” value in experiment [1] is ~0.1 µg/mL.

B4: BisG1-FAPα-FEAL/b12-FEAR (bispecific antibody, human IgG1, kappa)
heavy 1: B1 heavy 1 with R240G, D269A
light 1: B1 light 1
heavy 2: B2 heavy 1 with R246G, D275A, L415F, K419R
light 2: B2 light 1
notes: Fab-arm exchange of IgG1-FAPα-FEAL and IgG1-b12-FEAR
Turning to B4, in experiment [1], the binding result is “binds”.

B5: IgG1-DR4-FERR (antibody, V domains shown)
VH: QVQLQESGPGLVKPSGTLSLTCAVSGGSISSYSWWSWIRQPPGKGLEWIGELYHSGSTNYNPSLKSRVTISVDKSKNQFSLKLRSVTAADTAVYYCVRGVATIDYWGQGTLVTVSS
VL: QSALTQPPSASGSPGQSVTISCTGTSSDVGGYNFVSWYQQDPGKAPKLLIYEVTKRPSGVPDRFSGSKSGNTASLTVSGLQAEDEADYYCSSYAGSNNVMFGGGTKLTVLG
notes: Bivalent monoclonal IgG1 lambda
B5: the figures for the 50% effective concentration (EC50) in experiment [2] and in experiment [3] were 0.18 µg/mL and 0.51 µg/mL, respectively.
